Numbering of substitutions follows the chain as printed.

In assay [1] the target is T1, anthrax protective antigen (PA) (Bacillus anthracis, UniProt P13423 30-764). The experiment in a line: SPR. For orientation: In SPR one partner is held on a chip, and binding of the other changes the refractive index at the surface.
The target of assay [2] is T1, anthrax protective antigen (PA). The experiment in a line: SPR (Biacore 3000), antibody down; PA analyte.
Assay [3] has the same target. The experiment in a line: not stated (presumably SPR).
For assay [4] the target is unchanged. As to the kind of experiment: SPR (Biacore 3000), PA down; antibody analyte.

T1 sequence (P13423 30-764 limits assumed): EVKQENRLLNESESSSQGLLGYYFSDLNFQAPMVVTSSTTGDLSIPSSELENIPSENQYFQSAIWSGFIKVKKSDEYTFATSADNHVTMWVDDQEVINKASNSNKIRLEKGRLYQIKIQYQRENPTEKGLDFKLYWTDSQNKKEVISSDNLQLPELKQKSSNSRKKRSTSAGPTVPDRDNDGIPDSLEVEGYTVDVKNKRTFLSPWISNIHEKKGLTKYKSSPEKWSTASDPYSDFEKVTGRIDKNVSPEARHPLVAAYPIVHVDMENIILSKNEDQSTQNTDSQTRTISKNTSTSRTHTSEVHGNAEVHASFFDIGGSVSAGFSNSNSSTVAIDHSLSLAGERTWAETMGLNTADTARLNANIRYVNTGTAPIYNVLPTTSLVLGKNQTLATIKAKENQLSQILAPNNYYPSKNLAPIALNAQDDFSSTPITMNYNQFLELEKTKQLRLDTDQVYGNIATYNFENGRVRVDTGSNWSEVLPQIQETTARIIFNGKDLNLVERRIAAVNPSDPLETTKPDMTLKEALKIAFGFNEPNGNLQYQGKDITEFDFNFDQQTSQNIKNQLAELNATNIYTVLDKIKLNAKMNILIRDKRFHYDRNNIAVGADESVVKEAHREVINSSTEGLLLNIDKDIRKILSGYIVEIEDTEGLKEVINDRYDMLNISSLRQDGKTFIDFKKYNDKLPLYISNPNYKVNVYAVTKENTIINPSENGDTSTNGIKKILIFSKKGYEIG

B1: anti-PA 14B7 scFv (scFv)
scFv: DIQMTQTTSSLSASLGDRVTISCRASQDIRNYLNWYQQKPDGTVKLLIYYTSRLQSGVPSRFSGSGSGTDYSLTISNQEQEDIGTYFCQQGNTLPWTFGGGTKLEIKRGGGGSGGGGSGGGGSGGGGSEVQLQQSGPELVKPGASVKISCKDSGYAFSSSWMNWVKQRPGQGLEWIGRIYPGDGDTNYNGKFKGKATLTADKSSSTAYMQLSSLTSVDSAVYFCARSGLLRYAMDYWGQGTSVTVSS
As to B1, in assay [1], the Kd worked out at 4.3 nM, the koff is 0.003 s⁻¹ and the kon was determined as 710000 M⁻¹ s⁻¹.

B2: M18 scAb (scFv)
scFv: B1 scFv with I21V, L46F, S56P, S76N, Q78L, L94P, S158N, T186S, K193E, T197I
In assay [2], B2 registered a Kd of 0.095 nM and a kon of 930000 M⁻¹ s⁻¹. Moreover, in assay [3], the affinity, expressed as Kd, was 0.054 nM and the “fold improvement of KD over the whole antibody to PA” value was approximately 5 fold. In addition, in assay [1], the affinity, expressed as Kd, was 0.035 nM; the koff came out at 4.2e-05 s⁻¹; the kon was 1.2e+06 M⁻¹ s⁻¹. In assay [4], this molecule showed a Kd of 0.044 nM and a kon of 1.4e+06 M⁻¹ s⁻¹.

B3: M18 scAb-PEG 40 kDa (scFv)
scFv: B1 scFv with I21V, L46F, S56P, S76N, Q78L, L94P, S158N, T186S, K193E, T197I
In assay [2], B3 gave a Kd of 0.043 nM and a kon of 870000 M⁻¹ s⁻¹. In assay [4], this molecule returned a Kd of 2.6 nM and an on-rate constant (kon) of 27000 M⁻¹ s⁻¹.

B4: M18 scAb-PEG 20 kDa (scFv)
scFv: B1 scFv with I21V, L46F, S56P, S76N, Q78L, L94P, S158N, T186S, K193E, T197I
In assay [2], B4 returned a Kd of 0.025 nM and an on-rate constant (kon) of 780000 M⁻¹ s⁻¹. In assay [4], this molecule had a Kd of 0.69 nM and a kon of 100000 M⁻¹ s⁻¹.

By Kd is commonly meant the concentration at which binding is half-saturated. Low readings indicate a tighter complex, high ones a looser complex. As usually defined, the koff is the first-order rate constant of dissociation. A lower koff goes with a long-lived complex. Broadly, the kon is the second-order rate constant of association.

The record behind these values is patent US20060121045A1 (published 2006).
